{"source": "the supplement of paper PMC12042874", "note": "± gives the uncertainty stated by the source."}
{"assay": "amyloid nucleation score (Sup35N fusion, yeast selection) (log enrichment); library NNK1; higher = more nucleation; inactive = no reads after selection", "outline": "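Sup35N was fused to peptides of 20 random codons and expressed in psi-negative yeast, which were induced with 100 μM copper sulfate for 24 hours and then grown on medium lacking adenine and uracil for 7 days at 30°C. Plasmid inserts from input and output were sequenced on Illumina. The nucleation score is the DiMSum log enrichment of output over input reads, centred on the mode score of non-aggregating sequences. Sequences with under 100 input reads were left out, and random libraries had three technical output replicates.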"}
{"substance": "ILVSQCRRLVYFVGSVCFST", "amyloid nucleation score": "0.622 ± 0.53"}
{"substance": "ILWLFSGAWLYYSVLYCL", "amyloid nucleation score": "-0.076 ± 0.51"}
{"substance": "ILWPGWDYTKKIVFSCLMVI", "amyloid nucleation score": "-0.613 ± 0.29"}
{"substance": "ILYVNNFIFLH", "amyloid nucleation score": "7.59 ± 0.056"}
{"substance": "IMFTWWEYRLRSLEV", "amyloid nucleation score": "-0.334 ± 0.48"}
{"substance": "IMLNLFHYGSSLQQFKTHH", "amyloid nucleation score": "7.325 ± 0.054"}
{"substance": "IMVTDKLSTCAETYIDISW", "amyloid nucleation score": "-0.164 ± 0.75"}
{"substance": "IMWLLLPRYDLFFRLMYTAS", "amyloid nucleation score": "0.617 ± 0.46"}
{"substance": "INETLYRTFSRL", "amyloid nucleation score": "-0.471 ± 0.56"}
{"substance": "INLTNIHFCHVNFVVGALKP", "amyloid nucleation score": "5.98 ± 0.079"}
{"substance": "INSQSTATN", "amyloid nucleation score": "0.593 ± 0.31"}
{"substance": "IPVWTYIVWAQESILQRGCW", "amyloid nucleation score": "0.217 ± 0.46"}
{"substance": "IQLYIYCNMWKVGGKEWRAW", "amyloid nucleation score": "5.78 ± 0.087"}
{"substance": "IQNISLGVVGVMWNPHTCVV", "amyloid nucleation score": "-0.708 ± 0.66"}
{"substance": "IQSLVFRGKRVTHTKQSLTL", "amyloid nucleation score": "0.262 ± 0.36"}
{"substance": "IQTCCHIQVELV", "amyloid nucleation score": "3.79 ± 0.088"}
{"substance": "IRELRSDFSGSMVDERFLGE", "amyloid nucleation score": "0.489 ± 1.1"}
{"substance": "IRFFKCLTCVSDCGN", "amyloid nucleation score": "inactive"}
{"substance": "IRGLLRFL", "amyloid nucleation score": "0.007 ± 0.35"}
{"substance": "IRIWSSREGFASIVWTCLMG", "amyloid nucleation score": "-0.32 ± 0.54"}
{"substance": "IRKFLFLFNALLSAPLLFHK", "amyloid nucleation score": "-0.2 ± 1.1"}
{"substance": "IRLTILLSKVDTDE", "amyloid nucleation score": "0.885 ± 0.42"}
{"substance": "IRMGCNVHREEVSFTVLAVH", "amyloid nucleation score": "0.409 ± 0.66"}
{"substance": "IRMVFAMVSYSCDYRATAGT", "amyloid nucleation score": "2.65 ± 0.18"}
{"substance": "IRQQFKCYGEFCATM", "amyloid nucleation score": "-0.587 ± 1.2"}
{"substance": "IRSLITMVGTGLGPLAR", "amyloid nucleation score": "0.876 ± 0.4"}
{"substance": "ISCKWYNHISSRLNFMWHAK", "amyloid nucleation score": "0.394 ± 0.88"}
{"substance": "ISFCDGRSCIDLIAVRCFRG", "amyloid nucleation score": "-0.909 ± 0.26"}
{"substance": "ISFLFMCYLWQGNNS", "amyloid nucleation score": "6.24 ± 0.066"}
{"substance": "ISGIECQYTNGRRWGPPS", "amyloid nucleation score": "-0.323 ± 0.81"}
{"substance": "ISGLNV", "amyloid nucleation score": "-0.372 ± 0.51"}
{"substance": "ISHKQITTDSSNTVRVYGGN", "amyloid nucleation score": "-0.122 ± 1.6"}
{"substance": "ISICYRIEKRE", "amyloid nucleation score": "inactive"}
{"substance": "ISLGCNDSGLRIG", "amyloid nucleation score": "-0.935 ± 0.84"}
{"substance": "ISLISYFFSFLWLYYYFFEF", "amyloid nucleation score": "1.06 ± 0.28"}
{"substance": "ISLVICGFYGLAEMVDNSQN", "amyloid nucleation score": "7.51 ± 0.077"}
{"substance": "ISNWDVLSCMTQDIGVMTLL", "amyloid nucleation score": "-0.092 ± 0.82"}
{"substance": "ISSQFGAKTIFPRSVPPQAI", "amyloid nucleation score": "-0.562 ± 0.35"}
{"substance": "ISSWTHVW", "amyloid nucleation score": "1.23 ± 0.85"}
{"substance": "ISVHHFR", "amyloid nucleation score": "0.282 ± 0.57"}
{"substance": "ISVKHKFPGANSSVRWDRFW", "amyloid nucleation score": "3.47 ± 0.11"}
{"substance": "ISVMEFFVISGFTNWVKCFV", "amyloid nucleation score": "1.06 ± 0.31"}
{"substance": "ISVVLWYDRALARCPSPDAP", "amyloid nucleation score": "0.764 ± 0.49"}
{"substance": "ISYVSVS", "amyloid nucleation score": "0.073 ± 0.41"}
{"substance": "ITFLLRSFRVHS", "amyloid nucleation score": "inactive"}
{"substance": "ITFLRSTIPSVRTRQRLHEL", "amyloid nucleation score": "0.783 ± 0.4"}
{"substance": "ITFTHDNISYKIRTPFAKSL", "amyloid nucleation score": "1.55 ± 0.26"}
{"substance": "ITGFKFS", "amyloid nucleation score": "0.698 ± 0.3"}
{"substance": "ITLNWKIAEFSRCTVQLQNL", "amyloid nucleation score": "6.324 ± 0.061"}
{"substance": "ITLVDVVG", "amyloid nucleation score": "0.082 ± 0.34"}
{"substance": "ITNCEAEEPDCWPDE", "amyloid nucleation score": "-0.357 ± 0.35"}
{"substance": "ITSYSFIRSNGSVMGSWGSV", "amyloid nucleation score": "-0.092 ± 0.65"}
{"substance": "ITWFVYGPLGWMWGFLRPTA", "amyloid nucleation score": "0.019 ± 0.62"}
{"substance": "ITYIGWQGSNLYWLFTTTLV", "amyloid nucleation score": "-1.12 ± 1.9"}
{"substance": "ITYYVNFDFCQGSLARVWLC", "amyloid nucleation score": "5.01 ± 0.059"}
{"substance": "IVCFM", "amyloid nucleation score": "-0.377 ± 0.6"}
{"substance": "IVEGVPGTRPHVLAKCSDEC", "amyloid nucleation score": "0.232 ± 0.3"}
{"substance": "IVFLKLWEQVGWTVIDNLGV", "amyloid nucleation score": "-0.552 ± 1.4"}
{"substance": "IVNVAGNV", "amyloid nucleation score": "0.803 ± 0.45"}
{"substance": "IVRNGQATWSWILRGPSWVG", "amyloid nucleation score": "-1.32 ± 0.48"}
{"substance": "IVRSAVRLELSGLPRCQGIS", "amyloid nucleation score": "-0.065 ± 0.95"}
{"substance": "IVSTMCPRTDGVPCDNF", "amyloid nucleation score": "-0.035 ± 0.36"}
{"substance": "IVTKGGLNNVCAVYLCYVGS", "amyloid nucleation score": "6.46 ± 0.065"}
{"substance": "IVVFSIYYVCSDGGPRVTRR", "amyloid nucleation score": "1.43 ± 0.3"}
{"substance": "IVVYVCIVGNNAPSLDAKSV", "amyloid nucleation score": "0.923 ± 0.23"}
{"substance": "IWAHVPTSRYEILVVFSG", "amyloid nucleation score": "0.253 ± 0.45"}
{"substance": "IWEFSWLYMLKVMRSGFSYN", "amyloid nucleation score": "-0.282 ± 0.44"}
{"substance": "IWKSSRGPLIGLVVLDIARR", "amyloid nucleation score": "1.01 ± 0.79"}
{"substance": "IWMTGVLLNP", "amyloid nucleation score": "-0.223 ± 0.29"}
{"substance": "IWNSVARFRYSSMGFVVSAV", "amyloid nucleation score": "-0.702 ± 1.7"}
{"substance": "IWPYLGSASVL", "amyloid nucleation score": "1.73 ± 0.35"}
{"substance": "IWYYSSAQLDCFPYNSTMQE", "amyloid nucleation score": "0.8 ± 0.93"}
{"substance": "IYACRGQRVMRTRIKCVVIW", "amyloid nucleation score": "0.525 ± 0.72"}
{"substance": "IYASSLTDGFTVVWCLNQY", "amyloid nucleation score": "5.05 ± 0.07"}
{"substance": "IYDIEEDLCSVSVSGKESWV", "amyloid nucleation score": "-0.307 ± 0.47"}
{"substance": "IYFKIVILLRSSFFL", "amyloid nucleation score": "inactive"}
{"substance": "IYKLLGRVKSMMFLWYTVHS", "amyloid nucleation score": "-0.527 ± 0.52"}
{"substance": "IYRFQWPWDMLMYCWTLMSV", "amyloid nucleation score": "-0.776 ± 0.93"}
{"substance": "IYRLDTI", "amyloid nucleation score": "-0.864 ± 0.75"}
{"substance": "IYVFSALRCTGTEVWYRLVT", "amyloid nucleation score": "-1.2 ± 1.4"}
{"substance": "IYVWKTQ", "amyloid nucleation score": "-0.242 ± 0.5"}
{"substance": "IYYGQGICLVFAFNLLCNVL", "amyloid nucleation score": "6.261 ± 0.048"}
{"substance": "KAFATMLNRLEVGTLGRG", "amyloid nucleation score": "-1.36 ± 1.9"}
{"substance": "KAFRMLGGFNSYRNFNIILK", "amyloid nucleation score": "3.96 ± 0.079"}
{"substance": "KAMCYKMSFCNYDSRVYTED", "amyloid nucleation score": "4.53 ± 0.06"}
{"substance": "KANCCCVSHWCCGYMQ", "amyloid nucleation score": "4.63 ± 0.052"}
{"substance": "KCFSGYWVLARLRVKFLRVG", "amyloid nucleation score": "-0.275 ± 0.53"}
{"substance": "KCTLYLQFNIEHGCAIFEDK", "amyloid nucleation score": "2.06 ± 0.64"}
{"substance": "KCYGVETTYALA", "amyloid nucleation score": "0.875 ± 0.97"}
{"substance": "KCYTMHWPGS", "amyloid nucleation score": "-1.07 ± 1.7"}
{"substance": "KDEARRGLTLCPTGKDILDY", "amyloid nucleation score": "-0.026 ± 0.47"}
{"substance": "KDIYKRFFWYYSKKVCGYGA", "amyloid nucleation score": "-0.172 ± 0.25"}
{"substance": "KDVFPILGFCSAYLPYAWSA", "amyloid nucleation score": "-0.474 ± 0.29"}
{"substance": "KDVLVRFMYLG", "amyloid nucleation score": "-0.21 ± 0.68"}
{"substance": "KEDIVLACIGSVKHVRAQWR", "amyloid nucleation score": "5.97 ± 0.081"}
{"substance": "KETLGIQ", "amyloid nucleation score": "1.19 ± 0.52"}
{"substance": "KEYNNPRLKLTMRRFAAKS", "amyloid nucleation score": "0.539 ± 0.69"}
{"substance": "KFDLYRTWCSSLRFGRYWRV", "amyloid nucleation score": "1.23 ± 0.59"}
{"substance": "KFFFKSSNDVIKGVHNRTIR", "amyloid nucleation score": "-0.404 ± 0.49"}
{"substance": "KFIIAGNLNQKSTSWV", "amyloid nucleation score": "2.23 ± 0.086"}
{"substance": "KFIIVLILDCITIHHSVVVS", "amyloid nucleation score": "-0.819 ± 0.67"}
{"substance": "KFILRYMAWTRVDAVVSKPY", "amyloid nucleation score": "-0.496 ± 0.38"}
{"substance": "KFLLNRVLTDMDLYT", "amyloid nucleation score": "0.135 ± 0.37"}
{"substance": "KFVWVIAVDVDSRCKFCCGS", "amyloid nucleation score": "0.354 ± 0.82"}
{"substance": "KGAVFVPETAPLI", "amyloid nucleation score": "0.93 ± 1"}
{"substance": "KGGSFVGLSTVQYLLASYAL", "amyloid nucleation score": "-0.153 ± 1.3"}
{"substance": "KGKTNGVV", "amyloid nucleation score": "-0.44 ± 0.48"}
{"substance": "KGNRGQ", "amyloid nucleation score": "inactive"}
{"substance": "KGQSRHVSECVGWVSNVASL", "amyloid nucleation score": "0.461 ± 0.73"}
{"substance": "KGTGRLIRLASAWAGMGMHL", "amyloid nucleation score": "-0.332 ± 1.1"}
{"substance": "KHAYFSLIRVSNWKWNSVRV", "amyloid nucleation score": "-0.027 ± 0.56"}
{"substance": "KHSPSDYPERLHHNFYIERI", "amyloid nucleation score": "inactive"}
{"substance": "KHYFCKMSV", "amyloid nucleation score": "-0.029 ± 0.37"}
{"substance": "KIPYVFFGKRTGVSLFRMFD", "amyloid nucleation score": "0.202 ± 0.56"}
{"substance": "KKFRVGVDLSRCTLGLENYK", "amyloid nucleation score": "4.3 ± 0.059"}
{"substance": "KKYVMSNVTCVE", "amyloid nucleation score": "0.934 ± 0.47"}
{"substance": "KLFSWADHGGEGFEWMQLTT", "amyloid nucleation score": "-0.026 ± 0.3"}
{"substance": "KLGCYTL", "amyloid nucleation score": "0.367 ± 0.81"}
{"substance": "KLKGG", "amyloid nucleation score": "-0.27 ± 0.3"}
{"substance": "KLLNRTMRTMVSVSRVM", "amyloid nucleation score": "0.738 ± 0.72"}
{"substance": "KLMSEFTKFVFSLLSSNKSH", "amyloid nucleation score": "-0.457 ± 0.31"}
{"substance": "KLSFK", "amyloid nucleation score": "-0.227 ± 1.9"}
{"substance": "KLVDAGFVD", "amyloid nucleation score": "0.759 ± 0.35"}
{"substance": "KLWPSMSFLNCLWCIRERQL", "amyloid nucleation score": "4.48 ± 0.081"}
{"substance": "KLYLVVRMTGQPPSGMACVL", "amyloid nucleation score": "0.142 ± 1.2"}
{"substance": "KMEPGPRAKALGTNRRFLLK", "amyloid nucleation score": "inactive"}
{"substance": "KMGWLRH", "amyloid nucleation score": "-0.566 ± 0.5"}
